# Patent US20210079083A1 (INSTITUTE FOR BASIC SCIENCE, published 2021)
# T1: Human Angiopoietin-2 full-length (hAng2) (human, UniProt O15123 19-496)
# T1 construct: The cell assays used full-length hAng2 from R&D Systems; also called human Ang2; A2
# T1 sequence: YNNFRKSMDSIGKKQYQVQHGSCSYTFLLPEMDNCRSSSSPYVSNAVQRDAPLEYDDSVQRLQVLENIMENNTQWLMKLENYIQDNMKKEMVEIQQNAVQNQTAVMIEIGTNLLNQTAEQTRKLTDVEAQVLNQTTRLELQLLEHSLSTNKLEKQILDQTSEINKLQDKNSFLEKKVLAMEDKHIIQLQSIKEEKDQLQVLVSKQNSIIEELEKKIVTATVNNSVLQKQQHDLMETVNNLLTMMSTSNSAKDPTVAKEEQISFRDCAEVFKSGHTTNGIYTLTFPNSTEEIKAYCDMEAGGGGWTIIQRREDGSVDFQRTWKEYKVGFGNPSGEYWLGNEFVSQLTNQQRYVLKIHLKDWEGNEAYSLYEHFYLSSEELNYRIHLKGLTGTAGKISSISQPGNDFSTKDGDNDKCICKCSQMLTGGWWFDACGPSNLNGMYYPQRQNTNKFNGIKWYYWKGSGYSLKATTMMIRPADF
# T2: mouse Ang2 (mAng2) (mouse, UniProt O35608 19-496, limits assumed)
# T2 construct: Coated on the ELISA plate; also called recombinant mAng2
# T2 sequence (looked up): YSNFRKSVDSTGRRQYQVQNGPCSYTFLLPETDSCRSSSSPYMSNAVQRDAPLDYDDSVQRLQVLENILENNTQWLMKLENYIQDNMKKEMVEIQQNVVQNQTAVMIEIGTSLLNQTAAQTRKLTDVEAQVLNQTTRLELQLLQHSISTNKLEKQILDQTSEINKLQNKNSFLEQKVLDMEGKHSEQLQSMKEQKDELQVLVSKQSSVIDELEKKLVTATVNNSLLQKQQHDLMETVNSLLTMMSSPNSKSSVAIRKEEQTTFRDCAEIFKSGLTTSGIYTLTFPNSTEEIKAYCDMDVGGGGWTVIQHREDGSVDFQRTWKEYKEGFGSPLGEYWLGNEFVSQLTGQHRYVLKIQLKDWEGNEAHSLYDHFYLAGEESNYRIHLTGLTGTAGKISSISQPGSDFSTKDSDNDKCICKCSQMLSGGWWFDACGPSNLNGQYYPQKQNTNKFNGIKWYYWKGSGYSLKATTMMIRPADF
# Experiments:
# [1] = target: T1, Human Angiopoietin-2 full-length (hAng2); assay: BLI (Octet), hAng2 fixed on AR2G sensor, antibody 3.125-50 nM in solution, 1:1 global fit
# Description: (§1) The affinity of mouse monoclonal antibody against hAng2 was measured using Octet system (ForteBio). Specifically, buffer and samples were measured in total 200 μl/well using Black 96-well plates (96 well F-type black plates, Greiner). […] After the hydration, hAng2 was diluted in 10 mM sodium acetate, pH 6.0 buffer at a concentration of 10 μg/ml, fixed on AR2G biosensor, and blocked with 1M ethanolamine. The mouse monoclonal anti-Ang2 antibodies were diluted to 50, 25, 12.5, 6.25, 3.125, and 0 nM with 1× kinetic buffer, and subjected to association for 300 seconds and dissociation for 900 seconds.
# [2] = target: T1, Human Angiopoietin-2 full-length (hAng2); assay: BLI (Octet), antibody fixed on AR2G sensor, hAng2 3.125-50 nM in solution, 1:1 global fit
# Description: as §1, with “of humanized anti-Ang2” for “of mouse monoclonal”, “hydration, humanized anti-Ang2 antibody” for “hydration, hAng2”, “The recombinant hAng2 was” for “The mouse monoclonal anti-Ang2 antibodies were”, “300 sec” for “300 seconds”, “900 sec.” for “900 seconds.”
# The affinities of humanized 2C8 antibodies to hAng2 were in Table 15.
# mouse Ang2 (mAng2) = target: T2, mouse Ang2 (mAng2); assay: ELISA, mAng2 coated at 20 ng per well, detection with anti-human IgG (Fab)-HRP
# Description: FIG. 8. EC₅₀ values of anti-Ang2 antibodies against mouse Ang2 by ELISA. The binding affinities of humanized anti-Ang2 antibodies for mouse Ang2 (mAng2) were measured by analyzing EC₅₀ with ELISA. The recombinant mAng2 was coated and incubated with serially diluted anti-Ang2 antibodies, 4B9H11 and 2C8H11. Next, the plate was reacted with anti-human IgG (Fab)-HRP secondary antibody. The plate was treated with TMB solution and absorbance was measured at 450 nm. EC₅₀ value was analyzed using PerkinElmer's WorkOut 2.5 program.
# The affinity of humanized antibodies for mouse Ang2 (mAng2) was analyzed by ELISA. Specifically, mAng2 was diluted in 30 μl of a coating buffer (0.1 M sodium carbonate buffer) at 20 ng per well in a half 96-well plate (Corning 3690) and incubated overnight at 4° C. After washing with TBS-T solution for 3 times, the well plate was blocked with 3% skim milk at room temperature for 1 hr and then washed again. 2C8H11 and 4B9H11 were serially diluted from […] to 300 ng/ml. After loading 30 μl of the diluted ant-Ang2 antibodies into wells, the well plate was incubated at room temperature for 2 hrs. […] After developing for 5 min, the plate was treated with 1N sulfuric acid to stop the reaction, and absorbance was measured at 450 nm. Based on the measured OD value, the EC₅₀ value was analyzed using PerkinElmer's WorkOut 2.5 program.
Binder,Kd [1],koff [1],kon [1],Kd [2],koff [2],kon [2],EC50 (mouse Ang2 (mAng2))
"mouse anti-Ang2 antibody 2C8 (antibody, V domains shown) VH: QVQLQQSGPQLVRPGASVKISCKASGYSFTSYWMHWVKQRPGQGLEWIGMIDPSDSETRLNQKFKDKASLTVDKSSSTAYMQLSSPTSGDSAVYYCARRFYYGSDWYFDVWGAGSTVTVSS VL: DIVMTQSHKFMSTSVGDRVSITCKASQDVGTAVAWYQQKPGQSPKLLIYWASTRHTGVPDRFTGSGSGTDFTLTISNVQSEDLADYFCQQYSSYPLTFGSGTKLEIK",0.0455 nM,3.54e-06 s⁻¹,77800 M⁻¹ s⁻¹,,,,
"humanized anti-Ang2 antibody 2C8H11 (antibody, V domains shown, Full-length human IgG1) VH: QVQLVQSGAEVKKPGASVKVSCKASGYTFTSYWMHWVRQAPGQGLEWMGMIDPSDSETRLNQKFKDRVTMTRDTSTSTVYMELSSLRSEDTAVYYCARRFYYGSDWYFDVWGQGTLVTVSS VL: DIQLTQSPSFLSASVGDRVTITCKASQDVGTAVAWYQQKPGKAPKLLIYWASTRHTGVPSRFSGSGSGTEFTLTISSLQPEDFATYYCQQYSSYPLTFGQGTKVEIK",,,,0.212 nM,1.4e-05 s⁻¹,66000 M⁻¹ s⁻¹,97 µg/mL
"humanized anti-Ang2 antibody 4B9H11 (antibody, V domains shown, Full-length human IgG1) VH: QVQLVESGGGLVKPGGSLRLSCAASGFTFSDYYMYWIRQAPGKGLEWVSTISVGGSFTYYPDSVKGRFTISRDNAKNSLYLQMNSLRAEDTAVYYCARDWGLRPWFVYWGQGTLVTVSS VL: DIQMTQSPSSLSASVGDRVTITCKASQDVSTAVAWYQQKPGKAPKLLIYWASTRHTGVPSRFSGSGSGTDFTLTISSLQPEDFATYYCQQHYSTPPTFGQGTKVEIK",,,,0.0171 nM,1.58e-06 s⁻¹,92900 M⁻¹ s⁻¹,105 µg/mL
"humanized anti-Ang2 antibody 4B9H31 (antibody, V domains shown, Full-length human IgG1) VH: QVQLVESGGGLVKPGGSLRLSCAASGFTFSDYYMYWVRQAPGKGLEWVATISVGGSFTYYPDSVKGRFTISRDNAKNSLYLQMNSLRAEDTAVYYCARDWGLRPWFVYWGQGTLVTVSS VL: DIQMTQSPSSLSASVGDRVTITCKASQDVSTAVAWYQQKPGKAPKLLIYWASTRHTGVPSRFSGSGSGTDFTLTISSLQPEDFATYYCQQHYSTPPTFGQGTKVEIK",,,,0.167 nM,1.56e-05 s⁻¹,93900 M⁻¹ s⁻¹,
"mouse anti-Ang2 antibody 4E2 (antibody, V domains shown, Mouse monoclonal antibody from a hybridoma, purified on Protein G) VH: EVQLQQSGPELEKPGASVKISCKASGYSFTGYNMNWVKQSNGKSLEWIGNIDPYYGGTSYNQKFKGKATLTVDKSSSTAYMQLKSLTSEDSAVYYCVRYGNYVDYWGQGTTLTVSS VL: DIVMTQSHKFMSTSVGDRVSITCKASQDVSTAVAWYQQKPGQSPKLLIYWASTRHTGVPDRFTGSGSGTDYTLTISSVQAEDLALYYCQQHYNTPPTFGSGTKLEIK",4.74 nM,0.000134 s⁻¹,28300 M⁻¹ s⁻¹,,,,
"mouse anti-Ang2 antibody 2F10 (antibody, V domains shown, Mouse monoclonal antibody from a hybridoma, purified on Protein G) VH: QVQLVESGGGLVKPGGSLKLSCAASGFTFSDYYMYWIRQTPEKRLEWVATINDGGSYTYYPDSVKGRFTISRDNAKNNLYLQMSSLKSEDTAMYYCARDWGLRPWFVYWGQGTLVTVSA VL: DIVMTQSHKFMSTSVGDRVSITCKASQDVSTAVAWYQQKPGQSPKLLIYWASTRHTGVPDRFTGSGSGTDYTLTISSVQAEDLALYYCQQHYTTPPTFGSGTKLEIK",0.138 nM,1.71e-05 s⁻¹,124000 M⁻¹ s⁻¹,,,,
"mouse anti-Ang2 antibody 4B9 (antibody, V domains shown, Mouse monoclonal antibody from a hybridoma (KCLRF-BP-00418), purified on Protein G) VH: EVQLVESGGGLVKPGGSLKLSCAASGFTFSDYYMYWVRQTPEKRLEWVATISVGGSFTYYPDSVKGRFTISRDNAKNNLYLQMSSLKSEDTAMYYCARDWGLRPWFVYWGQGTLVTVSA VL: DIVMTQSHKFMSTSVGDRVSITCKASQDVSTAVAWYQQKPGQSPKLLIYWASTRHTGVPDRFTGSGSGTDYTLTISSVQAEDLALYYCQQHYSTPPTFGSGTKLEIK",0.00368 nM,5.04e-07 s⁻¹,137000 M⁻¹ s⁻¹,,,,
